The values that follow come from PMC5510004, “Recruitment and positioning determine the specific role of the XPF‐ERCC1 endonuclease in interstrand crosslink repair”.

The data set addresses T1, XPF wild type (xlXPF);ERCC1 wild type (hsERCC1) (Xenopus laevis;Homo sapiens?, UniProt A0A8J0PXV9;P07992 1-897;1-297, |).
T1 sequence 1: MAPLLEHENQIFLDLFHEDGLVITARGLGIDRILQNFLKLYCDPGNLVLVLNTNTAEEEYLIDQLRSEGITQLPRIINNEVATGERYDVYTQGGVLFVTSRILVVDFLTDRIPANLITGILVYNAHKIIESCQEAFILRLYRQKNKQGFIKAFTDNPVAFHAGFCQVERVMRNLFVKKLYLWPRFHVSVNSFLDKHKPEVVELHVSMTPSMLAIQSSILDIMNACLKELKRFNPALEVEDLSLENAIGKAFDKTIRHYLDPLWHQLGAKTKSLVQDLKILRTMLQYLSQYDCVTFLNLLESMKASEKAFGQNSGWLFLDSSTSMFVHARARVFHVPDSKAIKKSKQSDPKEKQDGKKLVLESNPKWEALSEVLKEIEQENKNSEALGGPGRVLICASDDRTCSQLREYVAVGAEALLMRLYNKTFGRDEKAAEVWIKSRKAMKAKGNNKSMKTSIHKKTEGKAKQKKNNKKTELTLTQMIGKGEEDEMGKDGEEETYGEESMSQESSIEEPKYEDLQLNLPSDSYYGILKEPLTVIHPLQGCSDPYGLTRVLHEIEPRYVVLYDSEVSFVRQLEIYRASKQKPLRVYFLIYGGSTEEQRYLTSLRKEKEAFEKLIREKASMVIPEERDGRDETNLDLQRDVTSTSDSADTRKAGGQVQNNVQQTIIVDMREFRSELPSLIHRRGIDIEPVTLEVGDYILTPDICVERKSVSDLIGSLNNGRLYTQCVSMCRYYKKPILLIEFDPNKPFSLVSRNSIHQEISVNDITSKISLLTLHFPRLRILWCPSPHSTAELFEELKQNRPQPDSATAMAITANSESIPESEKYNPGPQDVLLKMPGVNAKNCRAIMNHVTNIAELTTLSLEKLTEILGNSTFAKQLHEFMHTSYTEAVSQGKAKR
T1 sequence 2: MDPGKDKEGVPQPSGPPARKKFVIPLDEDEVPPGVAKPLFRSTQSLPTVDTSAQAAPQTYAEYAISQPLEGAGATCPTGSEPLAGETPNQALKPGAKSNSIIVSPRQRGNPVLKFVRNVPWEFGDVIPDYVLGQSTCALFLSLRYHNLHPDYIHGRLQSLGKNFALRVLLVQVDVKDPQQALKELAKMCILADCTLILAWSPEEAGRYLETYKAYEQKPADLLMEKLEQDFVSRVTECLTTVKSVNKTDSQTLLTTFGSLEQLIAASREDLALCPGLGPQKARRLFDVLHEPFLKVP
In words: fluorescence anisotropy; 2 mM Ca2+; 25 mM Hepes pH 8.0, 15% glycerol, 0.1 mg/ml BSA, 2 mM CaCl2, 10 nM DNA, 1 h at room temperature. The following applies: protein: recombinant;recombinant; tags: FLAG;His; copies: 1;1; label: 5'-FAM on F1; three strands 1:1:1. (In general: Polarisation of emitted light reports the rotation of a fluorescent probe.)

B1: 3' flap DNA substrate (F1+F2+F3) (dsDNA)
DNA 1: CGCGATGCGGATCCAA
DNA 2: CCTAGACTTAAGAGGCCAGACTTGGATCCGCATCGC
DNA 3: GGCCTCTTAAGTCTAGG
As to B1, the binding result is “binds”.
